# Measured values reported in the Human Domainome abundance scans (Beltran et al. 2025).
# ± gives the uncertainty stated by the source.
# B1: Intersectin-2, residues 1129 to 1183; numbered along this chain, Q9NZM3 (parent)
# chain: VCQVIAMYDYAANNEDELSFSKGQLINVMNKDDPDWWQGEINGVTGLFPSNYVKM
# Variants of: B1
# Assay: abundance fitness (aPCA) (normalised: wild type 0, dead -1); higher = more abundant; growth selection in yeast, the domain comes from the species named
# Settings: Homo sapiens
row,Variant,abundance fitness
1,VCQVIAMYDYAANNEDELSFFKGQLINVMNKDDPDWWQGEINGVTGLFPSNYVKM [S21F],-0.117 ± 0.058
2,VCQVIAMYDYAANNEDELSFDKGQLINVMNKDDPDWWQGEINGVTGLFPSNYVKM [S21D],-0.021 ± 0.035
3,VCQVIAMYDYAANNEDELSFYKGQLINVMNKDDPDWWQGEINGVTGLFPSNYVKM [S21Y],-0.12 ± 0.051
4,VCQVIAMYDYAANNEDELSFIKGQLINVMNKDDPDWWQGEINGVTGLFPSNYVKM [S21I],-0.045 ± 0.074
5,VCQVIAMYDYAANNEDELSFKKGQLINVMNKDDPDWWQGEINGVTGLFPSNYVKM [S21K],0.002 ± 0.056
6,VCQVIAMYDYAANNEDELSFWKGQLINVMNKDDPDWWQGEINGVTGLFPSNYVKM [S21W],-0.125 ± 0.053
7,VCQVIAMYDYAANNEDELSFVKGQLINVMNKDDPDWWQGEINGVTGLFPSNYVKM [S21V],-0.032 ± 0.037
8,VCQVIAMYDYAANNEDELSFRKGQLINVMNKDDPDWWQGEINGVTGLFPSNYVKM [S21R],-0.02 ± 0.036
9,VCQVIAMYDYAANNEDELSFPKGQLINVMNKDDPDWWQGEINGVTGLFPSNYVKM [S21P],-0.04 ± 0.042
10,VCQVIAMYDYAANNEDELSFGKGQLINVMNKDDPDWWQGEINGVTGLFPSNYVKM [S21G],-0.039 ± 0.031
11,VCQVIAMYDYAANNEDELSFMKGQLINVMNKDDPDWWQGEINGVTGLFPSNYVKM [S21M],-0.05 ± 0.045
12,VCQVIAMYDYAANNEDELSFQKGQLINVMNKDDPDWWQGEINGVTGLFPSNYVKM [S21Q],-0.137 ± 0.062
13,VCQVIAMYDYAANNEDELCFSKGQLINVMNKDDPDWWQGEINGVTGLFPSNYVKM [S19C],-0.066 ± 0.055
14,VCQVIAMYDYAANNEDELMFSKGQLINVMNKDDPDWWQGEINGVTGLFPSNYVKM [S19M],-0.21 ± 0.036
15,VCQVIAMYDYAANNEDELWFSKGQLINVMNKDDPDWWQGEINGVTGLFPSNYVKM [S19W],-0.313 ± 0.044
16,VCQVIAMYDYAANNEDELQFSKGQLINVMNKDDPDWWQGEINGVTGLFPSNYVKM [S19Q],-0.217 ± 0.044
17,VCQVIAMYDYAANNEDELKFSKGQLINVMNKDDPDWWQGEINGVTGLFPSNYVKM [S19K],-0.163 ± 0.046
18,VCQVIAMYDYAANNEDELIFSKGQLINVMNKDDPDWWQGEINGVTGLFPSNYVKM [S19I],-0.515 ± 0.058
19,VCQVIAMYDYAANNEDELYFSKGQLINVMNKDDPDWWQGEINGVTGLFPSNYVKM [S19Y],-0.197 ± 0.04
20,VCQVIAMYDYAANNEDELPFSKGQLINVMNKDDPDWWQGEINGVTGLFPSNYVKM [S19P],-0.166 ± 0.032
21,VCQVIAMYDYAANNEDELAFSKGQLINVMNKDDPDWWQGEINGVTGLFPSNYVKM [S19A],-0.045 ± 0.046
22,VCQVIAMYDYAANNEDELNFSKGQLINVMNKDDPDWWQGEINGVTGLFPSNYVKM [S19N],-0.047 ± 0.058
23,VCQVIAMYDYAANNEDELHFSKGQLINVMNKDDPDWWQGEINGVTGLFPSNYVKM [S19H],-0.123 ± 0.043
24,VCQVIAMYDYAANNEDELRFSKGQLINVMNKDDPDWWQGEINGVTGLFPSNYVKM [S19R],-0.181 ± 0.033

row,Variant,abundance fitness
1,VCQVIAMYDYAANNEDELEFSKGQLINVMNKDDPDWWQGEINGVTGLFPSNYVKM [S19E],-0.193 ± 0.06
2,VCQVIAMYDYAANNEDELLFSKGQLINVMNKDDPDWWQGEINGVTGLFPSNYVKM [S19L],-0.615 ± 0.036
3,VCQVIAMYDYAANNEDELDFSKGQLINVMNKDDPDWWQGEINGVTGLFPSNYVKM [S19D],-0.168 ± 0.075
4,VCQVIAMYDYAANNEDELGFSKGQLINVMNKDDPDWWQGEINGVTGLFPSNYVKM [S19G],-0.052 ± 0.045
5,VCQVIAMYDYAANNEDELFFSKGQLINVMNKDDPDWWQGEINGVTGLFPSNYVKM [S19F],-0.256 ± 0.056
6,VCQVIAMYDYAANNEDELSFSWGQLINVMNKDDPDWWQGEINGVTGLFPSNYVKM [K22W],-0.362 ± 0.052
7,VCQVIAMYDYAANNEDELSFSYGQLINVMNKDDPDWWQGEINGVTGLFPSNYVKM [K22Y],-0.172 ± 0.064
8,VCQVIAMYDYAANNEDELSFSNGQLINVMNKDDPDWWQGEINGVTGLFPSNYVKM [K22N],-0.025 ± 0.063
9,VCQVIAMYDYAANNEDELSFSDGQLINVMNKDDPDWWQGEINGVTGLFPSNYVKM [K22D],-0.22 ± 0.052
10,VCQVIAMYDYAANNEDELSFSCGQLINVMNKDDPDWWQGEINGVTGLFPSNYVKM [K22C],-0.061 ± 0.052
11,VCQVIAMYDYAANNEDELSFSAGQLINVMNKDDPDWWQGEINGVTGLFPSNYVKM [K22A],-0.027 ± 0.036
12,VCQVIAMYDYAANNEDELSFSVGQLINVMNKDDPDWWQGEINGVTGLFPSNYVKM [K22V],-0.074 ± 0.041
13,VCQVIAMYDYAANNEDELSFSQGQLINVMNKDDPDWWQGEINGVTGLFPSNYVKM [K22Q],0.033 ± 0.047
14,VCQVIAMYDYAANNEDELSFSRGQLINVMNKDDPDWWQGEINGVTGLFPSNYVKM [K22R],-0.121 ± 0.028
15,VCQVIAMYDYAANNEDELSFSMGQLINVMNKDDPDWWQGEINGVTGLFPSNYVKM [K22M],-0.118 ± 0.032
16,VCQVIAMYDYAANNEDELSFSFGQLINVMNKDDPDWWQGEINGVTGLFPSNYVKM [K22F],-0.164 ± 0.036
17,VCQVIAMYDYAANNEDELSFSPGQLINVMNKDDPDWWQGEINGVTGLFPSNYVKM [K22P],-0.154 ± 0.043
18,VCQVIAMYDYAANNEDELSFSEGQLINVMNKDDPDWWQGEINGVTGLFPSNYVKM [K22E],-0.036 ± 0.055
19,VCQVIAMYDYAANNEDELSFSLGQLINVMNKDDPDWWQGEINGVTGLFPSNYVKM [K22L],-0.146 ± 0.035
20,VCQVIAMYDYAANNEDELSFSHGQLINVMNKDDPDWWQGEINGVTGLFPSNYVKM [K22H],-0.146 ± 0.044
21,VCQVIAMYDYAANNEDELSFSSGQLINVMNKDDPDWWQGEINGVTGLFPSNYVKM [K22S],-0.084 ± 0.041
22,VCQVIAMYDYAANNEDELSFSTGQLINVMNKDDPDWWQGEINGVTGLFPSNYVKM [K22T],-0.064 ± 0.051
23,VCQVIAMYDYAANNEDELSFSGGQLINVMNKDDPDWWQGEINGVTGLFPSNYVKM [K22G],-0.097 ± 0.039
24,VCQVIAMYDYAANNEDELSFSIGQLINVMNKDDPDWWQGEINGVTGLFPSNYVKM [K22I],-0.063 ± 0.04
